Square brackets hold non-standard residues; d marks the D form. GABA = NCCCC(=O)O

The target of assay [1] is T1, recombinant human β-catenin, full-length (human, UniProt P35222 1-781, limits assumed).
T1 construct: Purified from E. coli; also called full-length β-catenin
T1 sequence (looked up): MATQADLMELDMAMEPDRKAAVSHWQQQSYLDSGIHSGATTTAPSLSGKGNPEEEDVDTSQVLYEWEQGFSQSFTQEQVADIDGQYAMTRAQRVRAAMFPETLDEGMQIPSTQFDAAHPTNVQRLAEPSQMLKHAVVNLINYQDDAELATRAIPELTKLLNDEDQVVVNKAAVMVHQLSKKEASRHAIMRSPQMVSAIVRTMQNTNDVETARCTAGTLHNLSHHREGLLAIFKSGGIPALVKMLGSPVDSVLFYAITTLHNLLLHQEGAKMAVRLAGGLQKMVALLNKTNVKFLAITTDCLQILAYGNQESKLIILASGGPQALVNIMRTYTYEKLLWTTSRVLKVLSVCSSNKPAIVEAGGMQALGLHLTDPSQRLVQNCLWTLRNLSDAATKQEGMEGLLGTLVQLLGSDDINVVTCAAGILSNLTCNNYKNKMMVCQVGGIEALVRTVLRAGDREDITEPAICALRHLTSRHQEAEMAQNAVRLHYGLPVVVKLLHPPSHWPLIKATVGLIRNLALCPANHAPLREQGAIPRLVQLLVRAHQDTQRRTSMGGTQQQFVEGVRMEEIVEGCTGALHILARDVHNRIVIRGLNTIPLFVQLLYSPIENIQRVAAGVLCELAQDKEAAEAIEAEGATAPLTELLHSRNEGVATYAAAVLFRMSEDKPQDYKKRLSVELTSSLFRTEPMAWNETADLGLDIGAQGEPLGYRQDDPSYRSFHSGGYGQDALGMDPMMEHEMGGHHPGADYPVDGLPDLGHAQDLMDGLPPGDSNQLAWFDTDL
The experiment in a line: SPR (Biacore 3000), recombinant β-catenin immobilized, five Nb concentrations, 1:1 Langmuir. The method, then:
The dissociation was induced by two injections of regeneration solution of 15 μl each at the identical flow rates.

The next assay has as its target T2, BC2T A6S.
T2 construct: positional scanning library member
T2 peptide: Ac-PDRKASVSHWQQ-NH2
The experiment in a line: positional peptide library pulldown on immobilised Nb, LC-MS of supernatant; signal ratio to control GFP-Nb (1 = not captured, near 0 = captured). The procedure, abridged: (§1)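 Unbound peptide left in supernatant after 1 h pulldown in PBS/0.01% CHAPS measured by reversed-phase LC-MS (8–30% eluent B gradient, 20 min).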

The target of another assay is T3, BC2T A5F.
T3 construct: positional scanning library member
T3 peptide: Ac-PDRKFAVSHWQQ-NH2
Described as above. The procedure, abridged: as §1

The target in the next assay is T4, BC2T P1K.
T4 construct: positional scanning library member
T4 peptide: Ac-KDRKAAVSHWQQ-NH2
Described as above. In outline:
as §1

The next assay addresses T5, BC2T D2C(Abu) (SMILES …).
T5 construct: positional scanning library member
T5 peptide: Ac-P[GABA]RKAAVSHWQQ-NH2
Described as above. In outline: as §1

In a further assay the target is T6, BC2T R3F.
T6 construct: positional scanning library member
T6 peptide: Ac-PDFKAAVSHWQQ-NH2
Described as above. The procedure, abridged:
as §1

Another assay deals with T7, BC2T P1Q.
T7 construct: positional scanning library member
T7 peptide: Ac-QDRKAAVSHWQQ-NH2
The description is as above. In outline: as §1

Another assay has as its target T8, BC2T D2E.
T8 construct: positional scanning library member
T8 peptide: Ac-PERKAAVSHWQQ-NH2
The description is as above. The procedure, abridged:
as §1

In another assay the target is T9, BC2T K4E (human).
T9 construct: position 4 library, row E
T9 peptide: Ac-PDREAAVSHWQQ-NH2
The experiment in a line: library pulldown, LC-MS of supernatant; ratio vs GFP-Nb control (0=captured, 1=not captured). In outline:
as §1

For the next assay, the target named is T10, BC2T S8K.
T10 construct: positional scanning library member
T10 peptide: Ac-PDRKAAVKHWQQ-NH2
In words: positional peptide library pulldown on immobilised Nb, LC-MS of supernatant; signal ratio to control GFP-Nb (1 = not captured, near 0 = captured). The procedure, abridged:
as §1

B1: BC2 nanobody (VHH)
VHH: QVQLVESGGGLVQPGGSLTLSCTASGFTLDHYDIGWFRQAPGKEREGVSCINNSDDDTYYADSVKGRFTIFMDNAKDTVYLQMNSLKPEDTAIYYCAEARGCKRGRYEYDFWGQGTQVTVSS
notes: Alpaca VHH, 122 aa; also called BC2-Nb; BC2 nanotrap (BC2-Nb immobilized on agarose/Sepharose beads); not shown: C-terminal 6xHis-tag added by the pHEN6 vector
As for B1, the Kd in [1] is about 3.1 nM.

B2: BC2-NbR106E (VHH)
VHH: QVQLVESGGGLVQPGGSLTLSCTASGFTLDHYDIGWFRQAPGKEREGVSCINNSDDDTYYADSVKGRFTIFMDNAKDTVYLQMNSLKPEDTAIYYCAEARGCKRGEYEYDFWGQGTQVTVSS
notes: headlock mutant of BC2-Nb; immobilised on beads in this assay
On to B2, for which the ratio with BC2T A6S came out at 0.6; with BC2T A5F, 0.1; with BC2T P1K it was 0.3; with BC2T D2C(Abu) it was 0.2; with BC2T R3F, 1; with BC2T P1Q, 0.6. Moreover, the ratio with BC2T D2E was 0.2.

B3: BC2 nanobody (BC2-Nb) (VHH)
VHH: QVQLVESGGGLVQPGGSLTLSCTASGFTLDHYDIGWFRQAPGKEREGVSCINNSDDDTYYADSVKGRFTIFMDNAKDTVYLQMNSLKPEDTAIYYCAEARGCKRGRYEYDFWGQGTQVTVSS
notes: immobilised on agarose/sepharose beads in this assay; also called BC2 nanotrap (immobilised form); not shown: C-terminal 6xHis-tag added by pHEN6 vector
Regarding B3, the ratio with BC2T K4E was determined as 0.5.

B4: BC2-NbR106S (VHH)
VHH: QVQLVESGGGLVQPGGSLTLSCTASGFTLDHYDIGWFRQAPGKEREGVSCINNSDDDTYYADSVKGRFTIFMDNAKDTVYLQMNSLKPEDTAIYYCAEARGCKRGSYEYDFWGQGTQVTVSS
notes: as for B2
Turning to B4, the ratio with BC2T S8K came out at 0.9.

For the origin of these results see patent US20170137467A1 (CHROMOTEK, published 2017).
